Assay results published in article PMC5304152.
Where “and” joins values, the source holds several entries; their conditions need not be identical. Equal values may be shown once.

Target: barfin plaice type I antifreeze protein, 40-residue major isoform (bpAFP) (barfin plaice (Liposetta pinnifasciata))
Test: AUC; sedimentation velocity, 40,000 rpm, 4 °C, 2.5 mg bpAFP in 0.5 mL (5 mg/mL) 10 mM sodium phosphate pH 7.9, absorbance optics; monomer to tetramer (and octamer)

“barfin plaice type I antifreeze protein, 40-residue major isoform (bpAFP) (peptide)” was tested, and the percent of loaded protein sedimenting as tetramer was 2.7% and the stoichiometry N was 4 and 8.
